From paper PMC4251702, “Plasmodium falciparum aldolase and the C-terminal cytoplasmic domain of certain apical organellar proteins promote actin polymerization” (Molecular and Biochemical Parasitology, 2014) come the findings set out here.

Usually Kd stands for the constant that tells how readily two partners part at equilibrium. A lower Kd goes with higher affinity.

The target of experiment [1] is rabbit muscle G-actin, biotinylated (rabbit, UniProt P68135 1-377). The experiment can be described thus: BLI. The note with it: both partners purified.
For experiment [2], the target named is rabbit muscle F-actin, biotinylated (rabbit, UniProt P68135 1-377). The experiment can be described thus: BLI. Particulars: both partners purified.

B1: Plasmodium falciparum aldolase (enzyme)
chain: MAHCTEYMNAPKKLPADVAEELATTAQKLVQAGKGILAADESTQTIKKRFDNIKLENTIENRASYRDLLFGTKGLGKFISGAILFEETLFQKNEAGVPMVNLLHNENIIPGIKVDKGLVNIPCTDEEKSTQGLDGLAERCKEYYKAGARFAKWRTVLVIDTAKGKPTDLSIHETAWGLARYASICQQNRLVPIVEPEILADGPHSIEVCAVVTQKVLSCVFKALQENGVLLEGALLKPNMVTAGYECTAKTTTQDVGFLTVRTLRRTVPPALPGVVFLSGGQSEEEASVNLNSINALGPHPWALTFSYGRALQASVLNTWQGKKENVAKAREVLLQRAEANSLATYGKYKGGAGGENAGASLYEKKYVY
notes: also called Pf aldolase; recombinant Pf aldolase; source: E. coli BL21 (pGEX-5X), purified, GST tag removed
In the case of B1, the Kd was determined as 330 nM in experiment [1] and 365 nM in experiment [2].
